Key:
Format in all cases: biochemical
[1] = substrate: CN(C)c1ccc(/N=N/c2ccc(C(=O)NCCCC[C@H](NC(=O)[C@H](CCC(=O)NCCNc3cccc4c(S(=O)(=O)O)cccc34)NC(=O)[C@H](CC3CCCCC3)NC(=O)N3CCOCC3)C(=O)O)cc2)cc1; test: in vitro activity assay (fluorescence, substrate cleavage) with Cath S; conditions: other: Cath S, measurement performed at pH 7.5, 37.0 °C
[2] = substrate: CN(C)c1ccc(/N=N/c2ccc(C(=O)NCCCC[C@H](NC(=O)[C@H](CCC(=O)NCCNc3cccc4c(S(=O)(=O)O)cccc34)NC(=O)[C@H](CC3CCCCC3)NC(=O)N3CCOCC3)C(=O)O)cc2)cc1; test: in vitro activity assay (fluorescence, substrate cleavage) with Cath K; conditions: other: Cath K; measurement performed at pH 7.5; pH 7.5; 37.0 °C
Protocol: (§1) […] The substrates were solved in DMSO and added to enzyme solution with a final concentration of 50 μM.
(§2) Fluorescence was measured with an Tecan SAFIRE II spectrometer (excitation wavelength: 336 nm; emission wavelength: 490 nm; excitation band: 10.0 nm; emission band: 10.0 nm; amplification (manual): 90).

[3] = substrate: CN(C)c1ccc2c(c1)Oc1cc(N(C)C)ccc1C21OC(=O)c2cc(C(=O)NCC[C@H](NC(=O)[C@H](CC3CCCCC3)NC(=O)N3CCOCC3)C(=O)NCCNC(=O)c3ccc(-c4c5ccc(=O)cc-5oc5cc(O)ccc45)c(C(=O)O)c3)ccc21; test: as above; conditions: other: Cath K; measurement performed at pH 5.5; pH 5.5; 37.0 °C
Protocol: as §1, §2

[4] = substrate: CN(C)c1ccc(/N=N/c2ccc(C(=O)NCCCC[C@H](NC(=O)[C@H](CCC(=O)NCCNc3cccc4c(S(=O)(=O)O)cccc34)NC(=O)[C@H](CC3CCCCC3)NC(=O)N3CCOCC3)C(=O)O)cc2)cc1; test: in vitro activity assay (fluorescence, substrate cleavage) with Papain; conditions: other: Papain; measurement performed at pH 7.5; pH 7.5; 37.0 °C
Protocol: as §1, §2

[5] = substrate: CN(C)c1ccc2c(c1)Oc1cc(N(C)C)ccc1C21OC(=O)c2cc(C(=O)NCC[C@H](NC(=O)[C@H](CC3CCCCC3)NC(=O)N3CCOCC3)C(=O)NCCNC(=O)c3ccc(-c4c5ccc(=O)cc-5oc5cc(O)ccc45)c(C(=O)O)c3)ccc21; test: as above; conditions: other: Papain; measurement performed at pH 5.5; pH 5.5; 37.0 °C
Protocol: as §1, §2

B1: Cath S (Homo sapiens) (protein)
chain: LPDSVDWREKGCVTEVKYQGSCGACWAFSAVGALEAQLKLKTGKLVSLSAQNLVDCSTEKYGNKGCNGGFMTTAFQYIIDNKGIDSDASYPYKAMDQKCQYDSKYRAATCSKYTELPYGREDVLKEAVANKGPVSVGVDARHPSFFLYRSGVYYEPSCTQNVNHGVLVVGYGDLNGKEYWLVKNSWGHNFGEEGYIRMARNKGNHCGIASFPSYPEI
In the case of B1, the Km [1] is reported as 32 µM, the Vmax [1] is reported as 0.144 µmol/min and the kcat [1] is reported as 0.11 s⁻¹. The kcat/Km [1] was 3260 M⁻¹ s⁻¹.

B2: Cath K (Homo sapiens) (protein)
chain: APDSVDYRKKGYVTPVKNQGQCGSCWAFSSVGALEGQLKKKTGKLLNLSPQNLVDCVSENDGCGGGYMTNAFQYVQKNRGIDSEDAYPYVGQEESCMYNPTGKAAKCRGYREIPEGNEKALKRAVARVGPVSVAIDASLTSFQFYSKGVYYDESCNSDNLNHAVLAVGYGIQKGNKHWIIKNSWGENWGNKGYILMARNKNNACGIANLASFPKM
B2 showed a Km [2] of 190 µM, a Vmax [2] of 0.018 µmol/min and a kcat/Km [2] of 27 M⁻¹ s⁻¹. For the same protein, the Km [3] was 35 µM, the Vmax [3] was 0.438 µmol/min and the kcat [3] was 0.192 s⁻¹.

B3: Papain (Carica papaya) (protein)
chain: IPEYVDWRQKGAVTPVKNQGSCGSCWAFSAVVTIEGIIKIRTGNLNEYSEQELLDCDRRSYGCNGGYPWSALQLVAQYGIHYRNTYPYEGVQRYCRSREKGPYAAKTDGVRQVQPYNEGALLYSIANQPVSVVLEAAGKDFQLYRGGIFVGPCGNKVDHAVAAVGYGPNYILIKNSWGTGWGENGYIRIKRGTGNSYGVCGLYTSSFYPVKN
B3 showed a Km [4] of 520 µM, a Vmax [4] of 0.096 µmol/min and a kcat [4] of 0.1 s⁻¹. For the same protein, the kcat/Km [4] was 273 M⁻¹ s⁻¹, the Km [5] was 6.3 µM and the Vmax [5] was 0.0024 µmol/min. For the same protein, the kcat [5] was 0.002 s⁻¹.
